Target: recombinant human PD-1 protein (human, UniProt Q15116 25-167)
Test: indirect ELISA, recombinant human PD-1 coated, HRP anti-human IgG (Fab specific), 4-parameter fit

recombinant human PD-1 protein, sequence (Q15116 25-167 limits assumed): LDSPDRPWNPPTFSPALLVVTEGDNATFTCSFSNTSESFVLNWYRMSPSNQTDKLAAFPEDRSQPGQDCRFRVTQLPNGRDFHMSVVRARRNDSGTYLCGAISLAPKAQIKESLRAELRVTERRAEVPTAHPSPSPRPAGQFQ

B1: Commercially available Tislelizumab (antibody, human IgG4 S228P, kappa)
heavy: QVQLQESGPGLVKPSETLSLTCTVSGFSLTSYGVHWIRQPPGKGLEWIGVIYADGSTNYNPSLKSRVTISKDTSKNQVSLKLSSVTAADTAVYYCARAYGNYWYIDVWGQGTTVTVSSASTKGPSVFPLAPCSRSTSESTAALGCLVKDYFPEPVTVSWNSGALTSGVHTFPAVLQSSGLYSLSSVVTVPSSSLGTKTYTCNVDHKPSNTKVDKRVESKYGPPCPPCPAPPVAGGPSVFLFPPKPKDTLMISRTPEVTCVVVAVSQEDPEVQFNWYVDGVEVHNAKTKPREEQFNSTYRVVSVLTVVHQDWLNGKEYKCKVSNKGLPSSIEKTISKAKGQPREPQVYTLPPSQEEMTKNQVSLTCLVKGFYPSDIAVEWESNGQPENNYKTTPPVLDSDGSFFLYSKLTVDKSRWQEGNVFSCSVMHEALHNHYTQKSLSLSLGK
light: DIVMTQSPDSLAVSLGERATINCKSSESVSNDVAWYQQKPGQPPKLLINYAFHRFTGVPDRFSGSGYGTDFTLTISSLQAEDVAVYYCHQAYSSPYTFGQGTKLEIKRTVAAPSVFIFPPSDEQLKSGTASVVCLLNNFYPREAKVQWKVDNALQSGNSQESVTEQDSKDSTYSLSSTLTLSKADYEKHKVYACEVTHQGLSSPVTKSFNRGEC
Q: With B1 as the binder, how does the EC50 read?
A: Its EC50 is 0.0143 µg/mL.
